The record followed here is patent US20140271457A1 (AbbVie / Abbott, published 2014).

Sequences and labels used below:
B1: DVD2788 (bispecific antibody, human IgG1, kappa)
heavy: not shown
light: DIQMTQSPSSLSASVGDRVTISCRASQDIRNYLNWYQQKPGKAPKLLIFYTSKLHSGVPSRFSGSGSGTDYTLTISSLQPEDIATYYCQQGLTPPLTFGGGTKVEIKRGGSGGGGSGDIQMTQSPSSLSASVGDRVTITCRASQDISQYLNWYQQKPGKAPKLLIYYTSRLQSGVPSRFSGSGSGTDFTLTISSLQPEDFATYFCQQGNTWPPTFGQGTKLEIKRTVAAPSVFIFPPSDEQLKSGTASVVCLLNNFYPREAKVQWKVDNALQSGNSQESVTEQDSKDSTYSLSSTLTLSKADYEKHKVYACEVTHQGLSSPVTKSFNRGEC
B2: DVD3013 (bispecific antibody, human IgG1, kappa)
heavy: not shown
light: B1 light with S147E, Q148N, W211Q
B3: DVD3089 (bispecific antibody, human IgG1, kappa)
heavy: not shown
light: DVVMTQSPLSLPVTLGQPASISCRSSQSLVHSHGNTYLHWYQQRPGQSPRLLIYTVSNRFSGVPDRFSGSGSGTDFTLKISRVEAEDVGVYYCSQSTHVPYTFGGGTKVEIKRTVAAPDIQMTQSPSSLSASVGDRVTITCRASQLVSSAVAWYQQKPGKAPKLLIYWASARHTGVPSRFSGSGSGTDFTLTISSLQPEDFATYYCQQHYKTPFTFGQGTKLEIKRTVAAPSVFIFPPSDEQLKSGTASVVCLLNNFYPREAKVQWKVDNALQSGNSQESVTEQDSKDSTYSLSSTLTLSKADYEKHKVYACEVTHQGLSSPVTKSFNRGEC
B4: DVD2789 (bispecific antibody, human IgG1, kappa)
heavy: not shown
light: DIQMTQSPSSLSASVGDRVTISCRASQDIRNYLNWYQQKPGKAPKLLIFYTSKLHSGVPSRFSGSGSGTDYTLTISSLQPEDIATYYCQQGLTPPLTFGGGTKVEIKRTVAAPDIQMTQSPSSLSASVGDRVTITCRASQDISQYLNWYQQKPGKAPKLLIYYTSRLQSGVPSRFSGSGSGTDFTLTISSLQPEDFATYFCQQGNTWPPTFGQGTKLEIKRTVAAPSVFIFPPSDEQLKSGTASVVCLLNNFYPREAKVQWKVDNALQSGNSQESVTEQDSKDSTYSLSSTLTLSKADYEKHKVYACEVTHQGLSSPVTKSFNRGEC
B5: DVD3017 (bispecific antibody, human IgG1, kappa)
heavy: not shown
light: B4 light with S143E, Q144N, W207Q
B6: DVD3014 (bispecific antibody, human IgG1, kappa)
heavy: not shown
light: B4 light with S143E, Q144N, W207Q
B7: DVD2792 (bispecific antibody, human IgG1, kappa)
heavy: not shown
light: B4 light
B8: DVD3084 (bispecific antibody, human IgG1, kappa)
heavy: not shown
light: DIQMTQSPSSLSASVGDRVTITCRASQLVSSAVAWYQQKPGKAPKLLIYWASARHTGVPSRFSGSGSGTDFTLTISSLQPEDFATYYCQQHYKTPFTFGQGTKLEIKRTVAAPDVVMTQSPLSLPVTLGQPASISCRSSQSLVHSHGNTYLHWYQQRPGQSPRLLIYTVSNRFSGVPDRFSGSGSGTDFTLKISRVEAEDVGVYYCSQSTHVPYTFGGGTKVEIKRTVAAPSVFIFPPSDEQLKSGTASVVCLLNNFYPREAKVQWKVDNALQSGNSQESVTEQDSKDSTYSLSSTLTLSKADYEKHKVYACEVTHQGLSSPVTKSFNRGEC
B9: DVD3087 (bispecific antibody, human IgG1, kappa)
heavy: not shown
light: B8 light
B10: DVD3097 (bispecific antibody)
heavy: not shown
light: B8 light with R24K, A53T, R54L, K93R
B11: DVD3094 (bispecific antibody)
heavy: not shown
light: B8 light with R24K, A53T, R54L, K93R
B12: DVD3088 (bispecific antibody, human IgG1, kappa)
heavy: not shown
light: DVVMTQSPLSLPVTLGQPASISCRSSQSLVHSHGNTYLHWYQQRPGQSPRLLIYTVSNRFSGVPDRFSGSGSGTDFTLKISRVEAEDVGVYYCSQSTHVPYTFGGGTKVEIKRGGSGGGGSGDIQMTQSPSSLSASVGDRVTITCRASQLVSSAVAWYQQKPGKAPKLLIYWASARHTGVPSRFSGSGSGTDFTLTISSLQPEDFATYYCQQHYKTPFTFGQGTKLEIKRTVAAPSVFIFPPSDEQLKSGTASVVCLLNNFYPREAKVQWKVDNALQSGNSQESVTEQDSKDSTYSLSSTLTLSKADYEKHKVYACEVTHQGLSSPVTKSFNRGEC
B13: DVD3083 (bispecific antibody, human IgG1, kappa)
heavy: not shown
light: DIQMTQSPSSLSASVGDRVTITCRASQLVSSAVAWYQQKPGKAPKLLIYWASARHTGVPSRFSGSGSGTDFTLTISSLQPEDFATYYCQQHYKTPFTFGQGTKLEIKRGGSGGGGSGDVVMTQSPLSLPVTLGQPASISCRSSQSLVHSHGNTYLHWYQQRPGQSPRLLIYTVSNRFSGVPDRFSGSGSGTDFTLKISRVEAEDVGVYYCSQSTHVPYTFGGGTKVEIKRTVAAPSVFIFPPSDEQLKSGTASVVCLLNNFYPREAKVQWKVDNALQSGNSQESVTEQDSKDSTYSLSSTLTLSKADYEKHKVYACEVTHQGLSSPVTKSFNRGEC
B14: DVD3093 (bispecific antibody)
heavy: not shown
light: B13 light with R24K, A53T, R54L, K93R
B15: DVD2791 (bispecific antibody, human IgG1, kappa)
heavy: not shown
light: DIQMTQSPSSLSASVGDRVTISCRASQDIRNYLNWYQQKPGKAPKLLIFYTSKLHSGVPSRFSGSGSGTDYTLTISSLQPEDIATYYCQQGLTPPLTFGGGTKVEIKRTVAAPSVFIFPPDIQMTQSPSSLSASVGDRVTITCRASQDISQYLNWYQQKPGKAPKLLIYYTSRLQSGVPSRFSGSGSGTDFTLTISSLQPEDFATYFCQQGNTWPPTFGQGTKLEIKRTVAAPSVFIFPPSDEQLKSGTASVVCLLNNFYPREAKVQWKVDNALQSGNSQESVTEQDSKDSTYSLSSTLTLSKADYEKHKVYACEVTHQGLSSPVTKSFNRGEC
B16: DVD3016 (bispecific antibody, human IgG1, kappa)
heavy: not shown
light: B15 light with S150E, Q151N, W214Q
B17: DVD3086 (bispecific antibody, human IgG1, kappa)
heavy: not shown
light: DIQMTQSPSSLSASVGDRVTITCRASQLVSSAVAWYQQKPGKAPKLLIYWASARHTGVPSRFSGSGSGTDFTLTISSLQPEDFATYYCQQHYKTPFTFGQGTKLEIKRTVAAPSVFIFPPDVVMTQSPLSLPVTLGQPASISCRSSQSLVHSHGNTYLHWYQQRPGQSPRLLIYTVSNRFSGVPDRFSGSGSGTDFTLKISRVEAEDVGVYYCSQSTHVPYTFGGGTKVEIKRTVAAPSVFIFPPSDEQLKSGTASVVCLLNNFYPREAKVQWKVDNALQSGNSQESVTEQDSKDSTYSLSSTLTLSKADYEKHKVYACEVTHQGLSSPVTKSFNRGEC
B18: DVD3096 (bispecific antibody)
heavy: not shown
light: B17 light with R24K, A53T, R54L, K93R
B19: AB399 (antibody, V domains shown)
VH: EVQLVQSGAEVKKPGASVKVSCKASGYTFTSYWMHWVRQAPGQGLEWIGNINPKGGSNIYNEKFQGRVTMTRDTSISTAYMELSRLRSDDTAVYYCARLDYFGDSFDLWGQGTTVTVSS
VL: DIQMTQSPSSLSASVGDRVTITCRASQGIRNYLNWYQQKPGKAPKLLIYYASNLEVGVPSRFSGSGSGTDYTLTISSLQPEDFATYYCQQDNRFPYTFGGGTKVEIKR

Where a chain is given by its changes, count along the chain named.

The target of this assay is Recombinant Human IL-13 (human, UniProt P35225 35-146, limits assumed). Kind of assay: cell-based or functional assay.
Recombinant Human IL-13, sequence (P35225 35-146 limits assumed): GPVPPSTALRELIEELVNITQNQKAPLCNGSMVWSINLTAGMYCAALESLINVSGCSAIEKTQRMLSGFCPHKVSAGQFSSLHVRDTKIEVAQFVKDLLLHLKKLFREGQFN
Consider B1, for which the “IL-13 Neutralization Assay IC50” value came out at 0.072 nM. For the molecule B2, the “IL-13 Neutralization Assay IC50” value amounted to 0.077 nM. In the case of B3 it was 0.074 nM. With B4 the figure was 0.078 nM.

On to B5, for which the “IL-13 Neutralization Assay IC50” value was found to be 0.111 nM. In the case of B6 it was 0.132 nM; in that of B7, 0.361 nM; in that of B8, 0.587 nM. As for B9, the “IL-13 Neutralization Assay IC50” value is 0.082 nM.

As for B10, the “IL-13 Neutralization Assay IC50” value was found to be 0.072 nM. On to B11, for which the “IL-13 Neutralization Assay IC50” value stood at 0.444 nM.

As to B12, the “IL-13 Neutralization Assay IC50” value amounted to 0.103 nM. Consider B13, for which the “IL-13 Neutralization Assay IC50” value was 0.098 nM.

On to B14, for which the “IL-13 Neutralization Assay IC50” value is 0.067 nM. In the case of B15 it was 0.245 nM; in that of B16, 0.081 nM.

As to B17, the “IL-13 Neutralization Assay IC50” value was 0.12 nM. For B18, the “IL-13 Neutralization Assay IC50” value turned out to be 0.064 nM. Take B19: the “IL-13 Neutralization Assay IC50” value came out at 0.075 nM.
